This is an account of results in patent US20120165204A1.

Broadly, the Kd is the concentration at which binding is half-saturated.

Assay [1] has as its target CRIB domain of PAK1 (residues 65-150, extended CRIB domain) with C-terminal 6x Histidine tag (UniProt Q13153). Put plainly: ITC at 25 °C, PA-Rac1 mutant injected into PAK1 CRIB (10 µM), experiment 2; column head prints 'mM', paragraph 152 gives 220-280 nM.
The target is the same in assay [2]. Put plainly: ITC at 25 °C, PA-Rac1 mutant injected into PAK1 CRIB (10 µM), experiment 1; column head prints 'mM', paragraph 152 and the legend of FIG. 3 give µM / nM.
For assay [3] the target is unchanged. Put plainly: ITC at 25 °C, experiment 1. Set-up: unit not given here.
Assay [4] has the same target. Put plainly: ITC at 25 °C, experiment 2. The arrangement: unit not given here.
For assay [5] the target is unchanged. Put plainly: ITC at 25 °C, experiment 2, stoichiometry of one-site model.
Assay [6] shares this target. The experiment in a line: ITC at 25 °C, experiment 1, stoichiometry of one-site model.
Assay [7] shares this target. Put plainly: ITC at 25 °C, PA-Rac1 mutant injected into PAK1 CRIB (10 µM), experiment 2; column head prints 'mM', paragraph 152 gives µM.
For assay [8] the target is unchanged. Put plainly: ITC.
Assay [9] shares this target. Put plainly: ITC at 25 °C, PA-Rac1 mutant injected into PAK1 CRIB (10 µM), experiment 1; column head prints 'mM', paragraph 152 and the legend of FIG. 3 give µM.

Regarding “PA-Rac1 I539E (lit state mutant) with N-terminal six Histidine tag (from UniProt P63000 4-192)”, the Kd is 280 nM in assay [1] and 220 nM in assay [2]. In addition, the ΔS in assay [3] was -30; in assay [4], -31. Also, the ΔH in [4] was -18000. The N in assay [5] and in assay [6] was 0.95 each time.

Consider “PA-Rac1 C450A (dark state mutant) with N-terminal six Histidine tag (from UniProt P63000 4-192)”, for which the Kd in assay [7] came to 3100 nM; in assay [9], 2300 nM. In [8], this substance returned a fold weaker affinity than the lit state mimetic I539E of 10 fold. The ΔH is -7000 in [3] and -5600 in assay [4]. Further, the results for the ΔS in assay [3] and in assay [4] were 2.6 and 6.6, respectively. Further, the figures for the N in assay [5] and in assay [6] were 0.64 and 1, respectively.
